# B1: CPEB3 Ribozyme (parent)
# chain: UAACAGGGGGCCACAGCAGAAGCGUUCACGUCGCAGCCCCUGUCAGAUUCUGGUGAAUCUGCGAAUUCUGCUGUAUAUCUC
# Variants of: B1
# Assay: self-cleavage, relative activity (ratio to wild type); higher = more cleavage; in vitro, sequencing
# Outline: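 Barcoded CPEB3 ribozyme mutants, produced by rounds of error-prone PCR, self-cleaved while being transcribed with T7 RNA polymerase for 5 hours at 37°C and during a subsequent 15 min DNase I step before EDTA was added. Sequencing of template-switched cDNA on Illumina gave cleaved and total reads, and DNA sequencing assigned barcodes to variants. Each variant's relative activity is its cleaved/total read fraction divided by the unmutated ribozyme's fraction, averaged across three batches. A variant needed a minimum of 5 reads.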
row,Variant,self-cleavage
1,UAACAGGGGGCCACAGCAGAAGCGUUCACGUCGCUGCCCCUGUCAGCUUCUGGUGAAUCUGCGAAUUCUGCUGUAUAUCUC [A35U A47C],0.4
2,UAACAGGGGGCCACAGCAGAAGCGUUCACGUCGCUGCCCCUGUCAGGUUCUGGUGAAUCUGCGAAUUCUGCUGUAUAUCUC [A35U A47G],0.48
3,UAACAGGGGGCCACAGCAGAAGCGUUCACGUCGCUGCCCCUGUCAGUUUCUGGUGAAUCUGCGAAUUCUGCUGUAUAUCUC [A35U A47U],0.26
4,UAACAGGGGGCCACAGCAGAAGCGUUCACGUCGCUGCCCCUGUCAGAUUCUGAUGAAUCUGCGAAUUCUGCUGUAUAUCUC [A35U G53A],0.51
5,UAACAGGGGGCCACAGCAGAAGCGUUCACGUCGCUGCCCCUGUCAGAUUCUGUUGAAUCUGCGAAUUCUGCUGUAUAUCUC [A35U G53U],0.76
6,UAACAGGGGGCCACAGCAGAAGCGUUCACGUCGCUGCCCCUGUCAGAUUCUGGUGAAUCUGCGACUUCUGCUGUAUAUCUC [A35U A65C],0.45
7,UAACAGGGGGCCACAGCAGAAGCGUUCACGUCGCUGCCCCUGUCAGAUUCUGGUGAAUCUGCGAGUUCUGCUGUAUAUCUC [A35U A65G],0.26
8,UAACAGGGGGCCACAGCAGAAGCGUUCACGUCGCUGCCCCUGUCAGAUUCUGGUGAAUCUGCGAUUUCUGCUGUAUAUCUC [A35U A65U],0.26
9,UAACAGGGGGCCACAGCAGAAGCGUUCACGUCGCUGUCCCUGUCAGAUUCUGGUGAAUCUGCGAAUUCUGCUGUAUAUCUC [A35U C37U],0.28
10,UAACAGGGGGCCACAGCAGAAGCGUUCACGUCGCUGCCCCUGUCAGAUUCUUGUGAAUCUGCGAAUUCUGCUGUAUAUCUC [A35U G52U],0.72
11,UAACAGGGGGCCACAGCAGAAGCGUUCACGUCGCUGCCCCUGUCAGAUUCUAGUGAAUCUGCGAAUUCUGCUGUAUAUCUC [A35U G52A],0.54
12,UAACAGGGGGCCACAGCAGAAGCGUUCACGUCGCUGCCCCUGUCAGAUUCUCGUGAAUCUGCGAAUUCUGCUGUAUAUCUC [A35U G52C],0.44
13,UAACAGGGGGCCACAGCAGAAGCGUUCACGUCGCGGCCCCUGUCAGAUUCUGGUGAAUCUGCGAAUUCUGCUGUAUAUCAC [A35G U80A],1.32
14,UAACAGGGGGCCACAGCAGAAGCGUUCACGUCGCGGCCCCUGUCAGAUUCUGGUGAAUCUGCGAAUUCUGCUGUAUAUCCC [A35G U80C],1.3
15,UAACAGGGGGCCACAGCAGAAGCGUUCACGUCGCGGCCCCUGUCAGAUUCUGGUGAAUCUGCGAAUUCUGCUGUAUAUCGC [A35G U80G],1.37
16,UAACAGGGGGCCACAGCAGAAGCGUUCACGUCGCGGCCCCUGUCAGAUUCUGGUGAAUCUGCGAAUUCUGCUGUAGAUCUC [A35G U76G],1.49
17,UAACAGGGGGCCACAGCAGAAGCGUUCACGUCGCGGCCCCUGUCAGAUUCUGGUGAAUCUGCGAAUUCUGCUGUAAAUCUC [A35G U76A],1.33
18,UAACAGGGGGCCACAGCAGAAGCGUUCACGUCGCGGCCCCUGUCAGAUUCUGGUGAAUCUGCGAAUUCUGCUGUACAUCUC [A35G U76C],1.29
19,UAACAGGGGGCCACAGCAGAAGCGUUCACGUCGCUGCCCCUGUCAGAUUCUGGUGAAUCUGCGAAUUCUGCUGUAUAUCUG [A35U C81G],0.39
20,UAACAGGGGGCCACAGCAGAAGCGUUCACGUCGCUGCCCCUGUCAGAUUCUGGUGAAUCUGCGAAUUCUGCUGUAUAUCUU [A35U C81U],0.61
21,UAACAGGGGGCCACAGCAGAAGCGUUCACGUCGCUGCCCCUGUCAGAUUCUGGUGAAUUUGCGAAUUCUGCUGUAUAUCUC [A35U C59U],0.29
22,UAACAGGGGGCCACAGCAGAAGCGUUCACGUCGCUGCCCCUGUCAGAUUCUGGUGAAUAUGCGAAUUCUGCUGUAUAUCUC [A35U C59A],0.15
23,UAACAGGGGGCCACAGCAGAAGCGUUCACGUCGCUGCCCGUGUCAGAUUCUGGUGAAUCUGCGAAUUCUGCUGUAUAUCUC [A35U C40G],0.17

row,Variant,self-cleavage
1,UAACAGGGGGCCACAGCAGAAGCGUUCACGUCGCUGCCCUUGUCAGAUUCUGGUGAAUCUGCGAAUUCUGCUGUAUAUCUC [A35U C40U],0.37
2,UAACAGGGGGCCACAGCAGAAGCGUUCACGUCGCUGCCCAUGUCAGAUUCUGGUGAAUCUGCGAAUUCUGCUGUAUAUCUC [A35U C40A],0.09
3,UAACAGGGGGCCACAGCAGAAGCGUUCACGUCGCUGCCCCUGUCAGAUUCUGGUGAAUCUGCGGAUUCUGCUGUAUAUCUC [A35U A64G],0.39
4,UAACAGGGGGCCACAGCAGAAGCGUUCACGUCGCUGCCCCUGUCAGAUUCUGGUGAAUCUGCGUAUUCUGCUGUAUAUCUC [A35U A64U],0.48
5,UAACAGGGGGCCACAGCAGAAGCGUUCACGUCGCUGCCCCUGUCAGAUUCUGGUGAAUCUGCGCAUUCUGCUGUAUAUCUC [A35U A64C],0.16
6,UAACAGGGGGCCACAGCAGAAGCGUUCACGUCGCUGCCCCUGUCAUAUUCUGGUGAAUCUGCGAAUUCUGCUGUAUAUCUC [A35U G46U],0.19
7,UAACAGGGGGCCACAGCAGAAGCGUUCACGUCGCUGCCCCUGUCAAAUUCUGGUGAAUCUGCGAAUUCUGCUGUAUAUCUC [A35U G46A],0.16
8,UAACAGGGGGCCACAGCAGAAGCGUUCACGUCGCUGCCCCUGUCAGAUUCUGGUGAAUCUGCGAAUUCUGCUGUAUAUUUC [A35U C79U],0.64
9,UAACAGGGGGCCACAGCAGAAGCGUUCACGUCGCUGCCCCUGUCAGAUUCUGGUGAUUCUGCGAAUUCUGCUGUAUAUCUC [A35U A57U],0.2
10,UAACAGGGGGCCACAGCAGAAGCGUUCACGUCGCUGCCCCUGUCAGAUUCUGGUGACUCUGCGAAUUCUGCUGUAUAUCUC [A35U A57C],0.31
11,UAACAGGGGGCCACAGCAGAAGCGUUCACGUCGCUGCCCCUGUCAGAUUCUGGUGAGUCUGCGAAUUCUGCUGUAUAUCUC [A35U A57G],0.47
12,UAACAGGGGGCCACAGCAGAAGCGUUCACGUCGCUGCCCCUGUCAGAUUCUGGUGAAUCUGCGAAUUCUGCUGUCUAUCUC [A35U A75C],0.71
13,UAACAGGGGGCCACAGCAGAAGCGUUCACGUCGCUGCCCCUGUCAGAUUCUGGUGAAUCUGCGAAUUCUGCUGUGUAUCUC [A35U A75G],0.58
14,UAACAGGGGGCCACAGCAGAAGCGUUCACGUCGCUGCCCCUGUCAGAUUCUGGUGAAUCUGCGAAUUCUGCUGUUUAUCUC [A35U A75U],0.56
15,UAACAGGGGGCCACAGCAGAAGCGUUCACGUCGCUGCCCCUGUCAGAUUCUGGUGAAUCUGCGAAUUCUGAUGUAUAUCUC [A35U C71A],0.13
16,UAACAGGGGGCCACAGCAGAAGCGUUCACGUCGCUGCCCCUGUCAGAUUCUGGUGAAUCUGCGAAUUCUGUUGUAUAUCUC [A35U C71U],0.37
17,UAACAGGGGGCCACAGCAGAAGCGUUCACGUCGCUGCCCCUGUCAGAUUCUGGUGAAUCUGCGAAUUCUGGUGUAUAUCUC [A35U C71G],0.15
18,UAACAGGGGGCCACAGCAGAAGCGUUCACGUCGCUGCCCCUGUCAGAUUAUGGUGAAUCUGCGAAUUCUGCUGUAUAUCUC [A35U C50A],0.43
19,UAACAGGGGGCCACAGCAGAAGCGUUCACGUCGCUGCCCCUGUCAGAUUCUGGUGAAUCUGCGAAUUCUGCUGUAUAUCUC [A35U],0.54
20,UAACAGGGGGCCACAGCAGAAGCGUUCACGUCGCUGCCCCUGUCAGAUUCUGGUGGAUCUGCGAAUUCUGCUGUAUAUCUC [A35U A56G],0.5
21,UAACAGGGGGCCACAGCAGAAGCGUUCACGUCGCUGCCCCUGUCAGAUUCUGGUGUAUCUGCGAAUUCUGCUGUAUAUCUC [A35U A56U],0.33
22,UAACAGGGGGCCACAGCAGAAGCGUUCACGUCGCUGCCCCUGUCAGAUUCUGGUGCAUCUGCGAAUUCUGCUGUAUAUCUC [A35U A56C],0.23
23,UAACAGGGGGCCACAGCAGAAGCGUUCACGUCGCUUCCCCUGUCAGAUUCUGGUGAAUCUGCGAAUUCUGCUGUAUAUCUC [A35U G36U],0.1

row,Variant,self-cleavage
1,UAACAGGGGGCCACAGCAGAAGCGUUCACGUCGCUACCCCUGUCAGAUUCUGGUGAAUCUGCGAAUUCUGCUGUAUAUCUC [A35U G36A],0.19
2,UAACAGGGGGCCACAGCAGAAGCGUUCACGUCGCUGCCCCUGUUAGAUUCUGGUGAAUCUGCGAAUUCUGCUGUAUAUCUC [A35U C44U],0.16
3,UAACAGGGGGCCACAGCAGAAGCGUUCACGUCGCUGCCCCUGUAAGAUUCUGGUGAAUCUGCGAAUUCUGCUGUAUAUCUC [A35U C44A],0.16
4,UAACAGGGGGCCACAGCAGAAGCGUUCACGUCGCUGCUCCUGUCAGAUUCUGGUGAAUCUGCGAAUUCUGCUGUAUAUCUC [A35U C38U],0.47
5,UAACAGGGGGCCACAGCAGAAGCGUUCACGUCGCUGCACCUGUCAGAUUCUGGUGAAUCUGCGAAUUCUGCUGUAUAUCUC [A35U C38A],0.21
6,UAACAGGGGGCCACAGCAGAAGCGUUCACGUCGCUGCCCCUGUCUGAUUCUGGUGAAUCUGCGAAUUCUGCUGUAUAUCUC [A35U A45U],0.32
7,UAACAGGGGGCCACAGCAGAAGCGUUCACGUCGCUGCCCCUGUCGGAUUCUGGUGAAUCUGCGAAUUCUGCUGUAUAUCUC [A35U A45G],0.32
8,UAACAGGGGGCCACAGCAGAAGCGUUCACGUCGCUGCCCCUGUCCGAUUCUGGUGAAUCUGCGAAUUCUGCUGUAUAUCUC [A35U A45C],0.18
9,UAACAGGGGGCCACAGCAGAAGCGUUCACGUCGCUGCCACUGUCAGAUUCUGGUGAAUCUGCGAAUUCUGCUGUAUAUCUC [A35U C39A],0.27
10,UAACAGGGGGCCACAGCAGAAGCGUUCACGUCGCUGCCUCUGUCAGAUUCUGGUGAAUCUGCGAAUUCUGCUGUAUAUCUC [A35U C39U],0.49
11,UAACAGGGGGCCACAGCAGAAGCGUUCACGUCGCUGCCCCUGUCAGAUUCUGGUGAAUCUGGGAAUUCUGCUGUAUAUCUC [A35U C62G],0.28
12,UAACAGGGGGCCACAGCAGAAGCGUUCACGUCGCUGCCCCUGUCAGAUUCUGGUGAAUCUGUGAAUUCUGCUGUAUAUCUC [A35U C62U],0.13
13,UAACAGGGGGCCACAGCAGAAGCGUUCACGUCGCUGCCCCUGUCAGAUUCUGGUGAAUCUGAGAAUUCUGCUGUAUAUCUC [A35U C62A],0.13
14,UAACAGGGGGCCACAGCAGAAGCGUUCACGUCGCUGCCCCUGUCAGAUUCUGGUGAAUCUGCGAAUUAUGCUGUAUAUCUC [A35U C68A],0.11
15,UAACAGGGGGCCACAGCAGAAGCGUUCACGUCGCUGCCCCUGUCAGAUUCUGGUGAAUCUGCGAAUUCUGCUGUAUUUCUC [A35U A77U],0.59
16,UAACAGGGGGCCACAGCAGAAGCGUUCACGUCGCUGCCCCUGUCAGAUUCUGGUGAAUCUGCGAAUUCUGCUGUAUGUCUC [A35U A77G],0.57
17,UAACAGGGGGCCACAGCAGAAGCGUUCACGUCGCGGCCCCUGUCAGAUUCUGGUGAAUCUGCGAAUUCUGCUGCAUAUCUC [A35G U74C],1.29
18,UAACAGGGGGCCACAGCAGAAGCGUUCACGUCGCGGCCCCUGUCAGAUUCUGGUGAAUCUGCGAAUUCUGCUGGAUAUCUC [A35G U74G],1.27
19,UAACAGGGGGCCACAGCAGAAGCGUUCACGUCGCGGCCCCUGUCAGAUUCUGGUGAAUCUGCGAAUUCUGCUGAAUAUCUC [A35G U74A],1.33
20,UAACAGGGGGCCACAGCAGAAGCGUUCACGUCGCGGCCCCUGUCAGAUUCUGGUGAAUCUGCGAAUUCUGCUGUAUACCUC [A35G U78C],1.3
21,UAACAGGGGGCCACAGCAGAAGCGUUCACGUCGCGGCCCCUGUCAGAUUCUGGUGAAUCUGCGAAUUCUGCUGUAUAGCUC [A35G U78G],1.29
22,UAACAGGGGGCCACAGCAGAAGCGUUCACGUCGCGGCCCCUGUCAGAUUCUGGUGAAUCUGCGAAUUCUGCUGUAUAACUC [A35G U78A],1.35
